# In patent US20240400614A1, “CLEAVABLE PEPTIDES AND METHODS OF USE THEREOF” (Bright Peak Therapeutics AG, priority 2023, published 2024):
# Square brackets hold non-standard residues; d marks the D form. Ends that are not written are not given here. Tyr(3-NO2) = N[C@@H](Cc1ccc(O)c([N+](=O)[O-])c1)C(=O)O; Nle = CCCC[C@H](N)C(=O)O; 2Abz = Nc1ccccc1C(=O)O
# Experiments:
# Format in all cases: biochemical
# matriptase = biological target: T1, matriptase (Homo sapiens, UniProt Q9Y5Y6); assay: FRET peptide cleavage efficiency with matriptase
# T1 construct: purchased R&D Systems 3946-SEB
# T1 sequence (Q9Y5Y6 615-855 limits assumed): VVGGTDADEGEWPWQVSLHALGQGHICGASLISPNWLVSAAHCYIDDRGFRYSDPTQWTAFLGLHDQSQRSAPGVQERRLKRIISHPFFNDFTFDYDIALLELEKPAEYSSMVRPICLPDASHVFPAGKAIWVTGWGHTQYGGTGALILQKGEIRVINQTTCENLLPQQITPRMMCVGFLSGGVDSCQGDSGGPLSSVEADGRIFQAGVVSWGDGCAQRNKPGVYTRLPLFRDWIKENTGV
# uPA = uPA (Homo sapiens, UniProt P00749); assay: FRET peptide cleavage efficiency with uPA
# MMP-7 = biological target: T2, MMP-7 (Homo sapiens, UniProt P09237); assay: FRET peptide cleavage efficiency with MMP-7 (standard pH 7.5; also pH 6.5)
# T2 construct: purchased SIGMA CC1059
# T2 sequence (P09237 95-267): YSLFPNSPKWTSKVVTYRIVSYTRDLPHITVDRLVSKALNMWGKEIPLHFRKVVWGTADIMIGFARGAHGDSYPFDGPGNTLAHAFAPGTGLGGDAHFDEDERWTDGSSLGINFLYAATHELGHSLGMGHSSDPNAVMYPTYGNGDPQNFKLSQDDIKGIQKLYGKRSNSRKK
# MMP-9 = biological target: T3, MMP-9 (Homo sapiens, UniProt P14780); assay: FRET peptide cleavage efficiency with MMP-9 (standard pH 7.5; also pH 6.5)
# T3 construct: purchased SIGMA PF024
# T3 sequence (P14780 94-707): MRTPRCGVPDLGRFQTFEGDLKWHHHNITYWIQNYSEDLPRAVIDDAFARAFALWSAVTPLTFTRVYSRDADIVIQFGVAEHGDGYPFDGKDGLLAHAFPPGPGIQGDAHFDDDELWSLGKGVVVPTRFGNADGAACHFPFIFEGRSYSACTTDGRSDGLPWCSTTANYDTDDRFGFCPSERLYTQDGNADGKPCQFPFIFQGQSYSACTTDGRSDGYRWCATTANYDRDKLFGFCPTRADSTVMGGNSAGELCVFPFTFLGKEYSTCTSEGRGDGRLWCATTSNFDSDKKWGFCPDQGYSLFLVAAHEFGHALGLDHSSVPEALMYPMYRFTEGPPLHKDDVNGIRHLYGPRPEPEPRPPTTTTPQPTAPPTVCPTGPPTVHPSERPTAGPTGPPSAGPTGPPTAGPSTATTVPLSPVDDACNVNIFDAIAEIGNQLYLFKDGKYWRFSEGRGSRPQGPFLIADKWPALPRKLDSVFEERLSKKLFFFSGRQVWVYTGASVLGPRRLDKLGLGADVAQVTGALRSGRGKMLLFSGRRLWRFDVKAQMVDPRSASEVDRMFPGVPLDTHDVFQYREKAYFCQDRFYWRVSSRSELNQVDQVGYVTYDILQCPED
# MMP-2 = biological target: T4, MMP-2 (Homo sapiens, UniProt P08253); assay: FRET peptide cleavage efficiency with MMP-2
# T4 construct: purchased SIGMA PF023
# T4 sequence (P08253 110-660): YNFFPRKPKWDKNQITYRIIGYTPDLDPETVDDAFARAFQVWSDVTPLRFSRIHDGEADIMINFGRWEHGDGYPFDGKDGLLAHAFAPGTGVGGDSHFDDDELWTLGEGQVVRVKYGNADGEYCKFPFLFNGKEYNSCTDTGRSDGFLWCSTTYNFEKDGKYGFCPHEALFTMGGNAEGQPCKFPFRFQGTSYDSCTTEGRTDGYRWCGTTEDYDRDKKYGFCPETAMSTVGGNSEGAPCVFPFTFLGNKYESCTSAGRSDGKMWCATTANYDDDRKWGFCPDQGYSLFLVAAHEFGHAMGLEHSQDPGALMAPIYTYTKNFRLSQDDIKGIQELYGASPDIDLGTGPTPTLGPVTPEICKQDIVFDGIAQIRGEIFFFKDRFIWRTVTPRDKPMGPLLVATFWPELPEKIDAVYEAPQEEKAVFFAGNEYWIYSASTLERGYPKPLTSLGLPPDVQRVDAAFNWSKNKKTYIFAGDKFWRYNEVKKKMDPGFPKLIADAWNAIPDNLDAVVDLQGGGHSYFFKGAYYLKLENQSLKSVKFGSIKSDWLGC
# [1] = t = 15 min, standard conditions (Table 8)
# [2] = t = 60 min, standard conditions (Table 8)
# [3] = t = 120 min, standard conditions (Table 8)
substance,measurement,setting,value
RQRRSPLGLAG ([2Abz]RQRRSPLGLAG[Tyr(3-NO2)]-NH2) [LNK010],% cleavage Matriptase t = 15 min,"matriptase; pH 6.5, t = 15 min (Table 7)",90%
same,% cleavage Matriptase t = 60 min,"matriptase; pH 6.5, t = 60 min (Table 7)",100%
same,% cleavage Matriptase t = 15 min,"matriptase; pH 7.5, t = 15 min (Table 7)",100%
same,% cleavage Matriptase t = 60 min,"matriptase; pH 7.5, t = 60 min (Table 7)",100%
same,% cleavage Matriptase t = 15 min,"matriptase; t = 15 min, 200 uM linker, 1 ug/ml protease, 37° C., buffer B pH 9.0",98%
same,% cleavage Matriptase t = 60 min,"matriptase; t = 60 min, 200 uM linker, 1 ug/ml protease, 37° C., buffer B pH 9.0",94%
same,% cleavage Matriptase t = 120 min,"matriptase; 200 uM linker, 1 ug/ml protease, 37° C., buffer B pH 9.0",91%
same,% cleavage uPA t = 60 min,"uPA; pH 6.5, t = 60 min (Table 7)",0%
same,% cleavage uPA t = 120 min,"uPA; pH 6.5, t = 120 min (Table 7)",0%
same,% cleavage uPA t = 60 min,"uPA; pH 7.5, t = 60 min (Table 7)",0%
same,% cleavage uPA t = 120 min,"uPA; pH 7.5, t = 120 min (Table 7)",0%
same,% cleavage uPA t = 15 min,"uPA; t = 15 min, 200 uM linker, 1 ug/ml protease, 37° C., buffer A pH 8.5",0%
same,% cleavage uPA t = 60 min,"uPA; t = 60 min, 200 uM linker, 1 ug/ml protease, 37° C., buffer A pH 8.5",1%
same,% cleavage uPA t = 120 min,"uPA; t = 120 min, 200 uM linker, 1 ug/ml protease, 37° C., buffer A pH 8.5",2%
same,% cleavage MMP-7 t = 15 min,MMP-7; t = 15 min (Table 9),15%
same,% cleavage MMP-7 t = 60 min,MMP-7; t = 60 min (Table 9),49%
same,% cleavage MMP-7 t = 120 min,MMP-7; t = 120 min (Table 9),78%
same,% cleavage MMP-9 t = 15 min,MMP-9; t = 15 min (Table 9),76%
same,% cleavage MMP-9 t = 60 min,MMP-9; t = 60 min (Table 9),99%
same,% cleavage MMP-9 t = 120 min,MMP-9; t = 120 min (Table 9),100%
same,% cleavage MMP-2 t = 15 min,"MMP-2; pH 6.5, t = 15 min (Table 7)",63%
same,% cleavage MMP-2 t = 60 min,"MMP-2; pH 6.5, t = 60 min (Table 7)",100%
same,% cleavage MMP-2 t = 15 min,"MMP-2; pH 7.5, t = 15 min (Table 7)",66%
same,% cleavage MMP-2 t = 60 min,"MMP-2; pH 7.5, t = 60 min (Table 7)",100%
same,% cleavage MMP-2 t = 15 min,MMP-2; t = 15 min (Table 9),67%
same,% cleavage MMP-2 t = 15 min,"MMP-2; t = 15 min, 200 uM linker, 1 ug/ml protease, 37° C., buffer C pH 7.5",64%
same,% cleavage MMP-2 t = 60 min,MMP-2; t = 60 min (Table 9),100%
same,% cleavage MMP-2 t = 60 min,"MMP-2; t = 60 min, 200 uM linker, 1 ug/ml protease, 37° C., buffer C pH 7.5",99%
same,% cleavage MMP-2 t = 120 min,MMP-2; t = 120 min (Table 9),100%
same,% cleavage MMP-2 t = 120 min,"MMP-2; t = 120 min, 200 uM linker, 1 ug/ml protease, 37° C., buffer C pH 7.5",99%
SGRVYMLQG ([2Abz]SGRVYMLQG[Tyr(3-NO2)]-NH2) [LNK044],% cleavage Matriptase t = 15 min,matriptase; [1],0%
same,% cleavage Matriptase t = 60 min,matriptase; [2],0%
same,% cleavage Matriptase t = 120 min,matriptase; standard conditions (Table 8),0%
same,% vcleavage uPA t = 15 min,uPA; [1],0%
same,% cleavage uPA t = 60 min,uPA; [2],0%
same,% cleavage uPA t = 120 min,uPA; [3],0%
same,% cleavage MMP-7 t = 15 min,MMP-7; t = 15 min (Table 9),1%
same,% cleavage MMP-7 t = 15 min,MMP-7; [1],1%
same,% cleavage MMP-7 t = 60 min,MMP-7; t = 60 min (Table 9),4%
same,% cleavage MMP-7 t = 60 min,MMP-7; [2],4%
same,% cleavage MMP-7 t = 120 min,MMP-7; t = 120 min (Table 9),9%
same,% cleavage MMP-7 t = 120 min,MMP-7; [3],9%
same,% cleavage MMP-9 t = 15 min,MMP-9; t = 15 min (Table 9),0%
same,% cleavage MMP-9 t = 15 min,MMP-9; [1],0%
same,% cleavage MMP-9 t = 60 min,MMP-9; t = 60 min (Table 9),1%
same,% cleavage MMP-9 t = 60 min,MMP-9; [2],1%
same,% cleavage MMP-9 t = 120 min,MMP-9; t = 120 min (Table 9),2%
same,% cleavage MMP-9 t = 120 min,MMP-9; [3],2%
same,% cleavage MMP-2 t = 15 min,MMP-2; t = 15 min (Table 9),0%
same,% cleavage MMP-2 t = 60 min,MMP-2; t = 60 min (Table 9),0%
same,% cleavage MMP-2 t = 60 min,MMP-2; [2],0%
same,% cleavage MMP-2 t = 120 min,MMP-2; t = 120 min (Table 9),1%
same,% cleavage MMP-2 t = 120 min,MMP-2; [3],1%
RGRRVANLVG ([2Abz]RGRRVANLVG[Tyr(3-NO2)]-NH2) [LNK033],% cleavage Matriptase t = 15 min,matriptase; [1],100%
same,% cleavage Matriptase t = 60 min,matriptase; [2],100%
same,% cleavage Matriptase t = 120 min,matriptase; standard conditions (Table 8),100%
same,% vcleavage uPA t = 15 min,uPA; [1],1%
same,% cleavage uPA t = 60 min,uPA; [2],2%
same,% cleavage uPA t = 120 min,uPA; [3],3%
same,% cleavage MMP-7 t = 15 min,MMP-7; t = 15 min (Table 9),30%
same,% cleavage MMP-7 t = 15 min,MMP-7; [1],30%
same,% cleavage MMP-7 t = 60 min,MMP-7; t = 60 min (Table 9),86%
same,% cleavage MMP-7 t = 60 min,MMP-7; [2],86%
same,% cleavage MMP-7 t = 120 min,MMP-7; t = 120 min (Table 9),98%
same,% cleavage MMP-7 t = 120 min,MMP-7; [3],98%
same,% cleavage MMP-9 t = 15 min,MMP-9; t = 15 min (Table 9),81%
same,% cleavage MMP-9 t = 15 min,MMP-9; [1],81%
same,% cleavage MMP-9 t = 60 min,MMP-9; t = 60 min (Table 9),100%
same,% cleavage MMP-9 t = 60 min,MMP-9; [2],100%
same,% cleavage MMP-9 t = 120 min,MMP-9; t = 120 min (Table 9),100%
same,% cleavage MMP-9 t = 120 min,MMP-9; [3],100%
same,% cleavage MMP-2 t = 15 min,MMP-2; t = 15 min (Table 9),87%
same,% cleavage MMP-2 t = 60 min,MMP-2; t = 60 min (Table 9),100%
same,% cleavage MMP-2 t = 60 min,MMP-2; [2],100%
same,% cleavage MMP-2 t = 120 min,MMP-2; t = 120 min (Table 9),100%
same,% cleavage MMP-2 t = 120 min,MMP-2; [3],100%
SGRVY-Nle-LQG ([2Abz]SGRVY[Nle]LQG[Tyr(3-NO2)]-NH2) [LNK045],% cleavage Matriptase t = 15 min,matriptase; [1],0%
same,% cleavage Matriptase t = 60 min,matriptase; [2],0%
same,% cleavage Matriptase t = 120 min,matriptase; standard conditions (Table 8),0%
same,% vcleavage uPA t = 15 min,uPA; [1],0%
same,% cleavage uPA t = 60 min,uPA; [2],0%
same,% cleavage uPA t = 120 min,uPA; [3],0%
same,% cleavage MMP-7 t = 15 min,MMP-7; t = 15 min (Table 9),0%
same,% cleavage MMP-7 t = 15 min,MMP-7; [1],0%
same,% cleavage MMP-7 t = 60 min,MMP-7; t = 60 min (Table 9),0%
same,% cleavage MMP-7 t = 60 min,MMP-7; [2],0%
same,% cleavage MMP-7 t = 120 min,MMP-7; t = 120 min (Table 9),0%
same,% cleavage MMP-7 t = 120 min,MMP-7; [3],0%
same,% cleavage MMP-9 t = 15 min,MMP-9; t = 15 min (Table 9),0%
same,% cleavage MMP-9 t = 15 min,MMP-9; [1],0%
same,% cleavage MMP-9 t = 60 min,MMP-9; t = 60 min (Table 9),0%
same,% cleavage MMP-9 t = 60 min,MMP-9; [2],0%
same,% cleavage MMP-9 t = 120 min,MMP-9; t = 120 min (Table 9),0%
same,% cleavage MMP-9 t = 120 min,MMP-9; [3],0%
same,% cleavage MMP-2 t = 15 min,MMP-2; t = 15 min (Table 9),0%
same,% cleavage MMP-2 t = 60 min,MMP-2; t = 60 min (Table 9),0%
same,% cleavage MMP-2 t = 60 min,MMP-2; [2],0%
same,% cleavage MMP-2 t = 120 min,MMP-2; t = 120 min (Table 9),0%
same,% cleavage MMP-2 t = 120 min,MMP-2; [3],0%
